Measurements published in patent US20230322953A1 (HARBOUR BIOMED SHANGHAI, published 2023).
Residue numbers refer to the chain shown, from its start. Names and notes keep the numbering of the source.

T1: biotinylated human BCMA-Fc, Avitag recombinant protein (ACRO Biosystems, #BC7-H82F0) (human, UniProt Q02223 1-54, biotinylated)
T1 construct: extracellular domain; Bought protein; also called human BCMA protein; recombinant human BCMA-ECD-Fc; not shown: Fc of the bought fusion protein; Avitag
T1 sequence (looked up): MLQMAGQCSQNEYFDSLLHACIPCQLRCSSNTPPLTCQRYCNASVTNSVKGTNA

T2: human BCMA (human, UniProt Q02223 1-184)
T2 construct: whole, on cells; also called hBCMA; TNFRSF17
T2 sequence (looked up): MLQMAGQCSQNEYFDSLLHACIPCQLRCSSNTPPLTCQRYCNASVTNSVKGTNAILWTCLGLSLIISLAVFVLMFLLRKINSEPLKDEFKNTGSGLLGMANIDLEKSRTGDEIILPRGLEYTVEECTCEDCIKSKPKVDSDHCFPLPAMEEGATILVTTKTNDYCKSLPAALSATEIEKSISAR

T3: human BCMA (human, UniProt Q02223 1-184)
T3 construct: whole, on cells; the cell line is named under assay; also called TNFRSF17; CD269
T3 sequence (looked up): T2 sequence (looked up)

B1: PR001578 (bispecific antibody, human IgG1, kappa)
chain 1: EVQLVESGGGLIQPGGSLRLSCAVSGFTVSKNYMSWVRQAPGKGLEWVSVVYSGGSKTYADSVKGRFTISRDNSKNTLYLQMNSLRAEDTAVYYCARAVPHSPSSFDIWGQGTMVTVSSKLEPKSSDKTHTPPPPPRTDIQMTQSPSTLSASVGDRVTVTCRASQSIYIWLAWYQQKPGKAPNLLIYKASSLETGVPSRFSGSGSGTEFTLTISSLQPDDFATYYCQQYYGSSRTFGQGTKVEIKRTVAAPSVFIFPPSDEQLKSGTASVVCLLNNFYPREAKVQWKVDNALQSGNSQESVTEQDSKDSTYSLSSTLTLSKADYEKHKVYACEVTHQGLSSPVTKSFNRGEC
chain 2: not shown
notes: PD-L1×CTLA4, structure 9, Fc S239D, I332E
B2: PR001573 (bispecific antibody, human IgG1, kappa)
light: DIQMTQSPSTLSASVGDRVTVTCRASQSIYIWLAWYQQKPGKAPNLLIYKASSLETGVPSRFSGSGSGTEFTLTISSLQPDDFATYYCQQYYGSSRTFGQGTKVEIKRTVAAPSVFIFPPSDEQLKSGTASVVCLLNNFYPREAKVQWKVDNALQSGNSQESVTEQDSKDSTYSLSSTLTLSKADYEKHKVYACEVTHQGLSSPVTKSFNRGEC
chain: not shown
notes: PD-L1×CTLA4, structure 3
B3: PR002301 (bispecific antibody, human IgG1, lambda, L234A L235A)
light: QAVVTQEPSLTVSPGGTVTLTCRSSTGAVTTSNYANWVQQKPGQAPRGLIGGTNKRAPWTPARFSGSLLGDKAALTLLGAQPEDEAEYFCALWYSNLWVFGGGTKLTVLGQPKAAPSVTLFPPSSEELQANKATLVCLISDFYPGAVTVAWKADSSPVKAGVETTTPSKQSNNKYAASSYLSLTPEQWKSHRSYSCQVTHEGSTVEKTVAPTECS
heavy: EVQLLESGGGLVQPGGSLRLSCAASGFTFSTYAMNWVRQAPGKGLEWVSRIRSKYNNYATYYADSVKDRFTISRDDSKSTLYLQMNSLRAEDTAVYYCVRHGNFGNSYVSWFAYWGQGTLVTVSSASTKGPSVFPLAPSSKSTSGGTAALGCLVKDYFPEPVTVSWNSGALTSGVHTFPAVLQSSGLYSLSSVVTVPSSSLGTQTYICNVNHKPSNTKVDKKVEPKSCDKTHTCPPCPAPEAAGGPSVFLFPPKPKDTLMISRTPEVTCVVVDVSHEDPEVKFNWYVDGVEVHNAKTKPREEQYNSTYRVVSVLTVLHQDWLNGKEYKCKVSNKALGAPIEKTISKAKGQPREPQVYTLPPCREEMTKNQVSLWCLVKGFYPSDIAVEWESNGQPENNYKTTPPVLDSDGSFFLYSKLTVDKSRWQQGNVFSCSVMHEALHNHYTQKSLSLSPGK
chain: EVQLLESGGGLVQPGGSLRLSCAASGFTFSSYAMIWVRQAPGKGLEWVSGISESGGSTYYADSVKGRFTISRDNSKNTLYLQMNSLRAEDTAVYFCVKDLDDILTGYYKDYWGQGTLVTVSSRTGGGGSGGGGSGGGGSGGGGSGGGGSKLEVQLLESGGGLVQPGGSLRLSCAASGFTFSSYAMIWVRQAPGKGLEWVSGISESGGSTYYADSVKGRFTISRDNSKNTLYLQMNSLRAEDTAVYFCVKDLDDILTGYYKDYWGQGTLVTVSSASEPKSSDKTHTCPPCPAPEAAGGPSVFLFPPKPKDTLMISRTPEVTCVVVDVSHEDPEVKFNWYVDGVEVHNAKTKPREEQYNSTYRVVSVLTVLHQDWLNGKEYKCKVSNKALGAPIEKTISKAKGQPREPQVCTLPPSREEMTKNQVSLSCAVKGFYPSDIAVEWESNGQPENNYKTTPPVLDSDGSFFLVSKLTVDKSRWQQGNVFSCSVMHEALHNHYTQKSLSLSPGK
B4: PR001046 VH single-domain molecule (original molecule) (VHH)
VHH: EVQLVETGGGLIQPGGSLRLSCAASGFTVSDNYMTWVRQAPGKGLEWVSVIFSGGNTYYADSVKGRFTISRDNAKNTLYLQMNSLRAEDTALYYCARRNYDDTRGTDVFDIWGQGTMVTVSS
notes: not the HCAb form; not shown: Flag and His tags
B5: PR004566, PR001046 VH-derived single-domain variant 1046-R2-4G10 (VHH)
VHH: B4 VHH with N32S, N56R, A60S
notes: Tested as VH single domain with Flag and His tags; not shown: Flag and His tags
B6: PR004560, PR001046 VH-derived single-domain variant 1046-R2-10F1 (VHH)
VHH: B4 VHH with N32A, Y59V, A60S, D102Q
notes: as for B5
B7: PR004568, PR001046 VH-derived single-domain variant 1046-R2-5H1 (VHH)
VHH: B4 VHH with N32A, N56R, Y59V
notes: as for B5
B8: PR004567, PR001046 VH-derived single-domain variant 1046-R2-5E1 (VHH)
VHH: B4 VHH with N32S, N56K, Y59V, D102Q
notes: as for B5
B9: PR004563, PR001046 VH-derived single-domain variant 1046-R2-1A1 (VHH)
VHH: B4 VHH with S30Y, N56K, Y59V, D102Q
notes: as for B5
B10: PR004569, PR001046 VH-derived single-domain variant 1046-R2-5H2 (VHH)
VHH: B4 VHH with N32S, N56R, A60S, D102Q
notes: as for B5
B11: PR004574, PR001046 VH-derived single-domain variant 1046-R2-9E5 (VHH)
VHH: B4 VHH with N32A, N56R, A60S, D102Q
notes: as for B5
B12: PR004559, PR001046 VH-derived single-domain variant 1046-R1-12G7 (VHH)
VHH: B4 VHH with N56K
notes: Tested as VH single domain with Flag and His tags; also called PR001046-R1-12G7; not shown: Flag and His tags
B13: PR004572, PR001046 VH-derived single-domain variant 1046-R2-7E7 (VHH)
VHH: B4 VHH with N32S, N56K, Y59V
notes: Tested as VH single domain with Flag and His tags; also called PR001046-R2-7E7; not shown: Flag and His tags
B14: PR004565, PR001046 VH-derived single-domain variant 1046-R2-2G4 (VHH)
VHH: B4 VHH with N32A, Y59V, A60S, D102Q, R104I
notes: as for B5
B15: PR004564, PR001046 VH-derived single-domain variant 1046-R2-2D4 (VHH)
VHH: B4 VHH with N32S, N56R, A60S, D102Q, R104L
notes: as for B5
B16: PR004573, PR001046 VH-derived single-domain variant 1046-R2-8B1 (VHH)
VHH: B4 VHH with N32S, N56K
notes: as for B5
B17: PR004570, PR001046 VH-derived single-domain variant 1046-R2-6D6 (VHH)
VHH: B4 VHH with N32A, N56R, D102Q
notes: as for B5
B18: PR004571, PR001046 VH-derived single-domain variant 1046-R2-6F1 (VHH)
VHH: B4 VHH with N32S, N56K, A60S, D102Q, R104I
notes: as for B5
B19: PR004561, PR001046 VH-derived single-domain variant 1046-R2-10H1 (VHH)
VHH: B4 VHH with N32S, D102Q, R104L
notes: as for B5
B20: PR004562, PR001046 VH-derived single-domain variant 1046-R2-10H5 (VHH)
VHH: B4 VHH with N32S, N56K, A60S, D102Q, R104L
notes: as for B5
B21: PR000416, anti-PD-L1 91G3H5H3(D54E), hIgG1 (antibody)
heavy: not shown
light: B2 light

molecular target: T4, human CTLA4 on cells (CHO-K1/hCTLA4; HEK293/hCTLA4; 293F-hCTLA4) (human, UniProt P16410 36-223); assay: competition FACS: biotinylated B7-1-Fc to CHO-K1/hCTLA4 cells (Test 2)
T4 construct: whole, on cells
T4 sequence (P16410 36-223): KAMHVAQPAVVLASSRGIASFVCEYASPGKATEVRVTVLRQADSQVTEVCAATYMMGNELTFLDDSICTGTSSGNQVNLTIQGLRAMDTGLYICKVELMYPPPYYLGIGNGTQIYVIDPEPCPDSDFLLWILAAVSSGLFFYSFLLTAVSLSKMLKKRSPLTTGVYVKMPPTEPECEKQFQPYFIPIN

IC50 [nM]	Maximum inhibition rate (%)	Binder
2.97	100	B1
6.22	99.2	B2

molecular target: T5, cynomolgus monkey BCMA (cynomolgus monkey, UniProt A0A2K5UD97 1-183); assay: FACS on HEK293T/cyno BCMA cells
T5 construct: whole, on cells; also called cyno BCMA
T5 sequence (A0A2K5UD97 entry or part of it): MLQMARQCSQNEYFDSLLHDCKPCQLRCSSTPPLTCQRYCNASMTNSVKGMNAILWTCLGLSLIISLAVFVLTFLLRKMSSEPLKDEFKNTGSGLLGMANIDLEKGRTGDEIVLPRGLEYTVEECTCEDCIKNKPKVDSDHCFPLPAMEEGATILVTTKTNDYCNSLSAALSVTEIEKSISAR

Maximum MFI	Binder
13000	B3

molecular target: T1, biotinylated human BCMA-Fc, Avitag …; assay: BLI, dissociation rate relative to the original molecule PR001046 VH

Kdis fold	Binder
1	B4
0.41	B5
0.43	B6
0.33	B7
0.29	B8
0.37	B9
0.36	B10
0.45	B11
0.54	B12
0.34	B13
0.34	B14
0.33	B15
0.41	B16
0.34	B17
0.31	B18
0.43	B19
0.31	B20

molecular target: T4, human CTLA4 on cells (CHO-K1/hCTLA4; …); assay: FACS, CHO-K1/hCTLA4 cells (Test 2)

EC50 [nM]	Maximum MFI [MFI]	Binder
4.65	401	B1
9.9	781	B2

molecular target: T1, biotinylated human BCMA-Fc, Avitag …; assay: BLI (Octet Red96e), biotinylated BCMA-Fc on SA sensor, VH supernatant, 100 nM, single concentration

Response	koff [s⁻¹]	Binder
0.261	0.000696	B4
0.424	0.000286	B5
0.573	0.000301	B6
0.733	0.00023	B7
0.578	0.000201	B8
0.493	0.000259	B9
0.73	0.000254	B10
0.29	0.000314	B11
0.261	0.000379	B12
0.29	0.000236	B13
0.557	0.000236	B14
0.57	0.000228	B15
0.268	0.000282	B16
0.437	0.000234	B17
0.704	0.000219	B18
0.269	0.0003	B19
0.535	0.000217	B20

molecular target: T6, human PD-L1 on cells (CHO-K1/hPDL1; MDA-MB-231) (human, UniProt Q9NZQ7 19-290); assay: FACS, CHO-K1/hPDL1 cells (Experiment 2)
T6 construct: whole, on cells
T6 sequence (Q9NZQ7 19-290): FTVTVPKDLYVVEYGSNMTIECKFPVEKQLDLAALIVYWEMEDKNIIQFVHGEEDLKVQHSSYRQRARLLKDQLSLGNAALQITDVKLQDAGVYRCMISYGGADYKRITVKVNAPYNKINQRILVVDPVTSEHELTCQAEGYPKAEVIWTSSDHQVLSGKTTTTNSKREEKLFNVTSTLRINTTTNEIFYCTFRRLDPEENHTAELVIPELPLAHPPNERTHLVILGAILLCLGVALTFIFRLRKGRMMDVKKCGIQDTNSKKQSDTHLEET

EC50 [nM]	Maximum MFI [MFI]	Binder
1.94	5660	B1
0.83	8310	B2
0.5	8380	B21

molecular target: T2, human BCMA; assay: FACS on NCI-H929 cells

Maximum MFI	Binder
53000	B3

molecular target: T6, human PD-L1 on cells (CHO-K1/hPDL1; …); assay: competition FACS: biotinylated PD-1 to CHO-K1/hPDL1 cells (Experiment 2)

IC50 [nM]	Maximum inhibition rate (%)	Binder
1.69	81.4	B1
0.5	82.3	B2
0.27	79.8	B21

molecular target: T3, human BCMA; assay: flow cytometry, NCI-H929 cells, Flag-tagged VH single domain, anti-tag secondary antibody

Maximum MFI	EC50 [nM]	Binder
764		B4
1400	3.17	B5
1300	3.75	B6
1440	2.85	B7
1440	1.72	B8
1260	7.96	B9
1420	5.87	B10
1300	2.9	B11
1190	22.4	B12
1500	0.54	B13
1430	2.42	B14
1530	1.34	B15
1230	1.72	B16
1360	2.15	B17
1380	2.86	B18
1240	4.38	B19
1560	1.24	B20
